Results taken from patent US20050026828A1.

Legend:
[1] = target: human prokineticin receptor 2 (human) (UniProt Q8NFJ6); experiment: cell-based or functional assay
[2] = target: human prokineticin receptor 1 (human) (UniProt Q8TCW9); experiment: cell-based or functional assay
UniProt Q8TCW9, sequence (Q8TCW9 whole entry I255M/S256T): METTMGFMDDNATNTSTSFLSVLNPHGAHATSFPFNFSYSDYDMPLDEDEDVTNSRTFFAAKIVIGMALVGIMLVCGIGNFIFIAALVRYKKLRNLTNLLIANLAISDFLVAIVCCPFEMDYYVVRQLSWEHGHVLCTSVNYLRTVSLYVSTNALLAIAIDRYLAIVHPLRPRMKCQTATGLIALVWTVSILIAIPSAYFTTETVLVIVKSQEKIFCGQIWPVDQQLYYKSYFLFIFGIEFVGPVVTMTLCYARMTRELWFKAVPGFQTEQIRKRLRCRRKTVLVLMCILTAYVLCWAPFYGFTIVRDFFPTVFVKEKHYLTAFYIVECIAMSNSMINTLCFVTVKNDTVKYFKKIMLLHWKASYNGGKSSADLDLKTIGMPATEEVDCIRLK

UniProt Q8NFJ6, sequence (Q8NFJ6 whole entry): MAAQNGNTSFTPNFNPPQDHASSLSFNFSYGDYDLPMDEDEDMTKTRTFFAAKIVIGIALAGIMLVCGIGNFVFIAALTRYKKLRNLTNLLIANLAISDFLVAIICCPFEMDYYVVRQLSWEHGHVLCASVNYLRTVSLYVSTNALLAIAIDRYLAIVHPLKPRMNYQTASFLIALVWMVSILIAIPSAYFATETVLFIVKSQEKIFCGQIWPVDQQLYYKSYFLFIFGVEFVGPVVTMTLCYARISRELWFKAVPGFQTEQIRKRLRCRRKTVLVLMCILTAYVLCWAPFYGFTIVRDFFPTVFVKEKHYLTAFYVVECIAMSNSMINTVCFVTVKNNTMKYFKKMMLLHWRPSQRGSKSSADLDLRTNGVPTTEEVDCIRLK

| Binder | Antagonistic Activity of PK mutants (Calcium Mobilization Assay), ligand PK1 [1] [nM] | Antagonistic Activity of PK mutants (Calcium Mobilization Assay), ligand PK2 [1] [nM] | Antagonistic Activity of PK mutants (Calcium Mobilization Assay), ligand PK1 [2] [nM] | Antagonistic Activity of PK mutants (Calcium Mobilization Assay), ligand PK2 [2] [nM] |
| --- | --- | --- | --- | --- |
| Met PK1 (ligand) MAVITGACERDVQCGAGTCCAISLWLRGLRMCTPLGREGEECHPGSHKVPFFRKRKHHTCPCLPNLLCSRFPDGRYRCSMDLKNINF | 15 | 30 | 9 | 90 |
| MV PK1 (ligand) MVITGACERDVQCGAGTCCAISLWLRGLRMCTPLGREGEECHPGSHKVPFFRKRKHHTCPCLPNLLCSRFPDGRYRCSMDLKNINF | 16 | 29 | 6 | 110 |
